From publication PMC10913813 (The Journal of Cell Biology, 2024)

Target: T1, 6xHis-SUMO-Gin4 (S. cerevisiae, UniProt Q12263 1-1142)
T1 sequence (looked up): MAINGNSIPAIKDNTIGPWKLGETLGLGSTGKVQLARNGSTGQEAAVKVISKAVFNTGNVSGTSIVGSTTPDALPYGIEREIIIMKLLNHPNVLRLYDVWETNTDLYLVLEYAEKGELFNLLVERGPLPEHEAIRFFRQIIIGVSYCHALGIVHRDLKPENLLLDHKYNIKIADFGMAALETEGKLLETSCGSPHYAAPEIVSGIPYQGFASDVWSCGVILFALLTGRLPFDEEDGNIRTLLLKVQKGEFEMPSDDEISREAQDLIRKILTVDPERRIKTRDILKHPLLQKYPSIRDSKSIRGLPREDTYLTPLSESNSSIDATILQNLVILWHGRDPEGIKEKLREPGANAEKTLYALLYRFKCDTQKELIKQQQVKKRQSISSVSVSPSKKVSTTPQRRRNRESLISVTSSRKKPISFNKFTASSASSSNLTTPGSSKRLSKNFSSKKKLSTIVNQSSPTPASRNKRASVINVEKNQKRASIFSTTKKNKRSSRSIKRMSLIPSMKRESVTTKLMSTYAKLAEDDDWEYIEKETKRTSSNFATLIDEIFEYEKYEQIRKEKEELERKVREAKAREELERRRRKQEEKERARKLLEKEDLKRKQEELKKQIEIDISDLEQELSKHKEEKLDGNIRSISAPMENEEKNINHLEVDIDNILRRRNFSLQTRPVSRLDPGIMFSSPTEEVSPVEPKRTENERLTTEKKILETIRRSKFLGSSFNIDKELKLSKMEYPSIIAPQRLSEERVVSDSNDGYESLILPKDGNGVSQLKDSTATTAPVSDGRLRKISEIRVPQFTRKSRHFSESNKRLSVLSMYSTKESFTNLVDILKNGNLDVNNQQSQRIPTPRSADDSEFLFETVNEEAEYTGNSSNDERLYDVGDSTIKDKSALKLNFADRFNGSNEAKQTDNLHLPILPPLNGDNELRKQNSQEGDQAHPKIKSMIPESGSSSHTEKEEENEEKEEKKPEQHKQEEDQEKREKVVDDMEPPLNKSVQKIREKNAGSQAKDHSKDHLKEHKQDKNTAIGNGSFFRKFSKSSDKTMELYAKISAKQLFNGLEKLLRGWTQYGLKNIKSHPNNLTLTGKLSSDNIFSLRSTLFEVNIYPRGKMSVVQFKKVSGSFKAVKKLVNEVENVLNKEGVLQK
Assay: pull-down

B1: GST-Elm1^WT (enzyme, S. cerevisiae, UniProt P32801 1-640, looked up)
chain: MSPRQLIPTLIPEWAPLSQQSCIREDELDSPPITPTSQTSSFGSSFSQQKPTYSTIIGENIHTILDEIRPYVKKITVSDQDKKTINQYTLGVSAGSGQFGYVRKAYSSTLGKVVAVKIIPKKPWNAQQYSVNQVMRQIQLWKSKGKITTNMSGNEAMRLMNIEKCRWEIFAASRLRNNVHIVRLIECLDSPFSESIWIVTNWCSLGELQWKRDDDEDILPQWKKIVISNCSVSTFAKKILEDMTKGLEYLHSQGCIHRDIKPSNILLDEEEKVAKLSDFGSCIFTPQSLPFSDANFEDCFQRELNKIVGTPAFIAPELCHLGNSKRDFVTDGFKLDIWSLGVTLYCLLYNELPFFGENEFETYHKIIEVSLSSKINGNTLNDLVIKRLLEKDVTLRISIQDLVKVLSRDQPIDSRNHSQISSSSVNPVRNEGPVRRFFGRLLTKKGKKKTSGKGKDKVLVSATSKVTPSIHIDEEPDKECFSTTVLRSSPDSSDYCSSLGEEAIQVTDFLDTFCRSNESLPNLTVNNDKQNSDMKTDRSESSSHSSLKIPTPIKAMIRLKSSPKENGNRTHINCSQDKPSSPLMDRTVGKRTVNNSGARKLAHSSNILNFKAYINSEDSDIRETVEDVKTYLNFADNGQI
Does B1 bind?
Result: binds
